B1: RBM25_(558-573) peptide, P49756 P558A (peptide)
chain: ADAELQRMEQEAERRR
B2: RBM25_(558-573) peptide, P49756 E570A (peptide)
chain: PDAELQRMEQEAARRR
B3: RBM25_(558-573) peptide, P49756 Q567A (peptide)
chain: PDAELQRMEAEAERRR
B4: RBM25_(558-573) peptide, P49756 Q563A (peptide)
chain: PDAELARMEQEAERRR
B5: RBM25_(558-573) peptide, P49756 M565A (peptide)
chain: PDAELQRAEQEAERRR
B6: RBM25_(558-573) peptide, P49756 L562A (peptide)
chain: PDAEAQRMEQEAERRR
B7: RBM25_(558-573) peptide, P49756 R564A (peptide)
chain: PDAELQAMEQEAERRR
B8: RBM25_(558-573) peptide, P49756 R571A (peptide)
chain: PDAELQRMEQEAEARR
B9: RBM25_(558-573) peptide, P49756 R573A (peptide)
chain: PDAELQRMEQEAERRA
B10: RBM25_(558-573) peptide, P49756 R572A (peptide)
chain: PDAELQRMEQEAERAR
B11: RBM25_(558-573) peptide, P49756 D559A (peptide)
chain: PAAELQRMEQEAERRR
B12: RBM25_(558-573) peptide, P49756 E566A (peptide)
chain: PDAELQRMAQEAERRR
B13: RBM25_(558-573) peptide, P49756 E568A (peptide)
chain: PDAELQRMEQAAERRR
B14: RBM25_(558-573) peptide, P49756 E561A (peptide)
chain: PDAALQRMEQEAERRR
B15: HECTD4_(3003-3018) peptide, Q9Y4D8 G3003A (peptide)
chain: AGVFKDEIYIPLQEED
B16: HECTD4_(3003-3018) peptide, Q9Y4D8 L3014A (peptide)
chain: GGVFKDEIYIPAQEED
B17: HECTD4_(3003-3018) peptide, Q9Y4D8 P3013A (peptide)
chain: GGVFKDEIYIALQEED
B18: HECTD4_(3003-3018) peptide, Q9Y4D8 E3017A (peptide)
chain: GGVFKDEIYIPLQEAD
B19: HECTD4_(3003-3018) peptide, Q9Y4D8 Q3015A (peptide)
chain: GGVFKDEIYIPLAEED
B20: HECTD4_(3003-3018) peptide, Q9Y4D8 I3010A (peptide)
chain: GGVFKDEAYIPLQEED
B21: HECTD4_(3003-3018) peptide, Q9Y4D8 G3004A (peptide)
chain: GAVFKDEIYIPLQEED
B22: HECTD4_(3003-3018) peptide, Q9Y4D8 V3005A (peptide)
chain: GGAFKDEIYIPLQEED
B23: HECTD4_(3003-3018) peptide, Q9Y4D8 E3009A (peptide)
chain: GGVFKDAIYIPLQEED
B24: HECTD4_(3003-3018) peptide, Q9Y4D8 K3007A (peptide)
chain: GGVFADEIYIPLQEED
B25: HECTD4_(3003-3018) peptide, Q9Y4D8 F3006A (peptide)
chain: GGVAKDEIYIPLQEED
B26: HECTD4_(3003-3018) peptide, Q9Y4D8 D3018A (peptide)
chain: GGVFKDEIYIPLQEEA
B27: HECTD4_(3003-3018) peptide, Q9Y4D8 Y3011A (peptide)
chain: GGVFKDEIAIPLQEED
B28: HECTD4_(3003-3018) peptide, Q9Y4D8 E3016A (peptide)
chain: GGVFKDEIYIPLQAED
B29: HECTD4_(3003-3018) peptide, Q9Y4D8 I3012A (peptide)
chain: GGVFKDEIYAPLQEED
B30: HECTD4_(3003-3018) peptide, Q9Y4D8 D3008A (peptide)
chain: GGVFKAEIYIPLQEED
B31: ATXN7L2_(18-39) peptide (peptide)
peptide: VPSLDDFAGQSWSSWVERADLP-NH2
modifications: also: N-terminus FITC-labeled or acetylated
B32: ATXN7L2_(18-34) peptide (peptide)
peptide: VPSLDDFAGQSWSSWVE-NH2
modifications: also: N-terminus FITC-labeled or acetylated
B33: ATXN7L1_(36-52) peptide (peptide)
peptide: VPSPEAFLGKPWSSWID-NH2
modifications: also: N-terminus FITC-labeled or acetylated
B34: ATXN7L1_(36-57) peptide (peptide)
peptide: VPSPEAFLGKPWSSWIDAAKLH-NH2
modifications: also: N-terminus FITC-labeled or acetylated
B35: HIF1A 564-581 D570K peptide (peptide)
peptide: Ac-PYIPMDKDFQLRSFDQLS-NH2
B36: GPR137B 348-362 peptide, unlabelled (peptide)
peptide: Ac-SDDDLAWNIAPQGLQ-NH2
B37: MFSD2B 395-409 peptide (peptide)
peptide: Ac-DVVDDFQLQHRHGPGY-NH2
B38: HIF2A 531-548 peptide (peptide)
peptide: Ac-PYIPMDGEDFQLSPICPE-NH2
B39: CCDC88B 947-961 peptide (peptide)
peptide: Ac-QLEEELFQLRQGPAGY-NH2
B40: USP19 874-888 peptide (peptide)
peptide: Ac-YPFQPGRMALESQSPG-NH2
B41: CCP110 582-593 peptide (peptide)
peptide: Ac-YEKVKRRLDLDID-NH2
B42: IRAG1 302-316 peptide (peptide)
peptide: Ac-YTNSSGKMALNSPQPG-NH2
B43: HIF1A 564-581 L574A peptide (peptide)
peptide: Ac-PYIPMDDDFQARSFDQLS-NH2

Ends that are not written are not given here.

Sequence of USP33 DUSP2 domain (human) (Q8TEY7 whole entry, the tested form may be a part): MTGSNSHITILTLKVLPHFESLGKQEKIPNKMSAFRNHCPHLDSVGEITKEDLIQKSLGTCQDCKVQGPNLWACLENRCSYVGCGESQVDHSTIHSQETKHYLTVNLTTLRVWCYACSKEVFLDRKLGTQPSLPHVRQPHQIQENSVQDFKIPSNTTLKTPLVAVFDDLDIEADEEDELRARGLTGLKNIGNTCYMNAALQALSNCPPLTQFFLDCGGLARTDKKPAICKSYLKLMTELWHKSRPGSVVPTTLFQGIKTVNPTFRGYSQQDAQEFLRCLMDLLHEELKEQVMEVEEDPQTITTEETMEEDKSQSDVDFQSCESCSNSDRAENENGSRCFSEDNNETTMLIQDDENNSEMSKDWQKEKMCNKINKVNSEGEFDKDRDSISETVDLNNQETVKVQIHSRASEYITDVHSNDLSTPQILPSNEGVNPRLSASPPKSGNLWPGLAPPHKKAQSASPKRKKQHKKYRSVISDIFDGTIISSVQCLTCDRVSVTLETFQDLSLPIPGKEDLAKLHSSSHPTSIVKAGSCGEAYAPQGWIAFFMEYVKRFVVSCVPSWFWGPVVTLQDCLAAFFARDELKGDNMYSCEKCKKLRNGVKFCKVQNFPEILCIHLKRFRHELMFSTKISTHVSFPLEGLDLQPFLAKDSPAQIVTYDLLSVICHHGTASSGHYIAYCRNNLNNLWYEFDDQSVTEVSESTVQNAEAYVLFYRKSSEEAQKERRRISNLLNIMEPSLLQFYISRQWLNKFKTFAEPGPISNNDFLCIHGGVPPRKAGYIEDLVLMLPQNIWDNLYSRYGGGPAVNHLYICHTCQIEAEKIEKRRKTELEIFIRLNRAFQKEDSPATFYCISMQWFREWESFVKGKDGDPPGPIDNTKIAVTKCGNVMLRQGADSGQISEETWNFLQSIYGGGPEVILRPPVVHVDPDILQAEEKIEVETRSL
Sequence of USP20 DUSP2 domain (human) (Q9Y2K6 whole entry, the tested form may be a part): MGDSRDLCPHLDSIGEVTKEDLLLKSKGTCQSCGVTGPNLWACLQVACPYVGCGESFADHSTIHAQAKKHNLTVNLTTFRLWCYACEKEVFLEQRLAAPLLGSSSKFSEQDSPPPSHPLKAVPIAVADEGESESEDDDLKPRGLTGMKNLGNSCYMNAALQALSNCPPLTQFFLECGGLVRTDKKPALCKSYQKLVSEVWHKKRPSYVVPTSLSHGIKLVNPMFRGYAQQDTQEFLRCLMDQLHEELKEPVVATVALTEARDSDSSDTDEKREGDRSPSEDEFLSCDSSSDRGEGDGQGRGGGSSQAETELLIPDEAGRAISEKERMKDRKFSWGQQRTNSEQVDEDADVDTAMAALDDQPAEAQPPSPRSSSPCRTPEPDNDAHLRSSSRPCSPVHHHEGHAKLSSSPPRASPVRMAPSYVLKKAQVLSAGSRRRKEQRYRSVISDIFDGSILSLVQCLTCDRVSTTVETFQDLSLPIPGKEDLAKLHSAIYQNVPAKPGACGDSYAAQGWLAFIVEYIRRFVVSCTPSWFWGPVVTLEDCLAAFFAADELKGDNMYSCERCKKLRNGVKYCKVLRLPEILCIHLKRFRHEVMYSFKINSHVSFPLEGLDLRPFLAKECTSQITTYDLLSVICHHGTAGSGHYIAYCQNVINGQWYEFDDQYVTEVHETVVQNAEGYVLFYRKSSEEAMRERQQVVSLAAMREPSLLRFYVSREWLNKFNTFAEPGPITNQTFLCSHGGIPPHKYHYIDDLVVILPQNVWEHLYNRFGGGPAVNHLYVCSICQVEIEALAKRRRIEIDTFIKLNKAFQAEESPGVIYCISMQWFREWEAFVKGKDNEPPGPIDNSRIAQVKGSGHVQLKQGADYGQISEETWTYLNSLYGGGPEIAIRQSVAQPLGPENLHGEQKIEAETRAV

The target in the first assay is T1, CYLD CAP-Gly1 domain, GST-tagged, Q9NQC7.
T1 chain: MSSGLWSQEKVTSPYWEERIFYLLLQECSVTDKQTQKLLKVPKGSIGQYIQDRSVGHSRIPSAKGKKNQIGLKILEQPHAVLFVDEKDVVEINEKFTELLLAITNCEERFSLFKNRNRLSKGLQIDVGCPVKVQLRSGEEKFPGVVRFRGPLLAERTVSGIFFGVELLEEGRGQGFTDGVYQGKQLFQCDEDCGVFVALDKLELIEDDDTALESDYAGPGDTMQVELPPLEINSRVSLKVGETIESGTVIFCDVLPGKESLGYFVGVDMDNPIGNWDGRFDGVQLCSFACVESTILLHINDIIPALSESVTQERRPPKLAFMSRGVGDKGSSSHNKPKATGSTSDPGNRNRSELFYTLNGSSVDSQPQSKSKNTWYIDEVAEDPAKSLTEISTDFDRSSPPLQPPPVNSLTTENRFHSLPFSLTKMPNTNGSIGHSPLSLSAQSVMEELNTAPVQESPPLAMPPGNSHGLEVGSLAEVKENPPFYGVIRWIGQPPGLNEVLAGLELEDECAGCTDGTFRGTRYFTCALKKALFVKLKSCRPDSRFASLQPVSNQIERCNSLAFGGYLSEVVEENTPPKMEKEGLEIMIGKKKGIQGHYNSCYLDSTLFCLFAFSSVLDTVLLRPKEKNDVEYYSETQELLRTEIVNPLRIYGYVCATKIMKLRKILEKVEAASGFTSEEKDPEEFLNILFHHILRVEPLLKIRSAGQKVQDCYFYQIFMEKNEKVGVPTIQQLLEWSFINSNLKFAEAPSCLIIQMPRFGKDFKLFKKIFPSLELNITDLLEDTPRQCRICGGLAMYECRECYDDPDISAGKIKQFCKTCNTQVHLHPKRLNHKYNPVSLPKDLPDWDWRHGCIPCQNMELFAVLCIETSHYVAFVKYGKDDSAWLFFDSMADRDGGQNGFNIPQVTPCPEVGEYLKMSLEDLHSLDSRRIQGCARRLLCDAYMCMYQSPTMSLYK
The assay can be described thus: peptide SPOT array alanine scanning. The settings on record: chain shown with the change;; parent: est. 0; read off a plot.
In the case of B1, the other: signal change (%) was -5%.

Consider B2, for which the other: signal change (%) is -10%.

In the case of B3, the other: signal change (%) was -25%.

Regarding B4, the other: signal change (%) was -35%.

Take B5: the other: signal change (%) is -90%.

Turning to B6, the other: signal change (%) was -95%.

Turning to B7, the other: signal change (%) is -65%.

Regarding B8, the other: signal change (%) is -40%.

On to B9, for which the other: signal change (%) is -95%.

B10: the other: signal change (%) is -95%.

Take B11: the other: signal change (%) is -10%.

As to B12, the other: signal change (%) is -15%.

In the case of B13, the other: signal change (%) was -15%.

As to B14, the other: signal change (%) was -30%.

The target in another assay is T2, CYLD CAP-Gly3 domain, GST-tagged, Q9NQC7.
T2 chain: T1 chain
Put plainly: peptide SPOT array alanine scanning. The settings on record: chain shown with the change;; parent: est. 0; read off a plot.
As for B15, the other: signal change (%) is -5%.

Regarding B16, the other: signal change (%) is 50%.

Consider B17, for which the other: signal change (%) is -85%.

As for B18, the other: signal change (%) was 55%.

For the molecule B19, the other: signal change (%) is -15%.

Regarding B20, the other: signal change (%) was -95%.

Take B21: the other: signal change (%) is -95%.

As for B22, the other: signal change (%) is -70%.

For B23, the other: signal change (%) is -95%.

In the case of B24, the other: signal change (%) is -95%.

As for B25, the other: signal change (%) was -95%.

Regarding B26, the other: signal change (%) stood at 35%.

B27: the other: signal change (%) is -95%.

For the molecule B28, the other: signal change (%) was -25%.

On to B29, for which the other: signal change (%) was -90%.

As to B30, the other: signal change (%) is -95%.

In the next assay the target is USP22 zf-UBP domain, tag cleaved (for FP) (human) (UniProt Q9UPT9). Put plainly: fluorescence polarisation; saturation or displacement not stated for this experiment; 50 mM phosphate buffer pH 7.4, room temperature.
Sequence of USP22 zf-UBP domain, tag cleaved (for FP) (human) (Q9UPT9 whole entry, the tested form may be a part): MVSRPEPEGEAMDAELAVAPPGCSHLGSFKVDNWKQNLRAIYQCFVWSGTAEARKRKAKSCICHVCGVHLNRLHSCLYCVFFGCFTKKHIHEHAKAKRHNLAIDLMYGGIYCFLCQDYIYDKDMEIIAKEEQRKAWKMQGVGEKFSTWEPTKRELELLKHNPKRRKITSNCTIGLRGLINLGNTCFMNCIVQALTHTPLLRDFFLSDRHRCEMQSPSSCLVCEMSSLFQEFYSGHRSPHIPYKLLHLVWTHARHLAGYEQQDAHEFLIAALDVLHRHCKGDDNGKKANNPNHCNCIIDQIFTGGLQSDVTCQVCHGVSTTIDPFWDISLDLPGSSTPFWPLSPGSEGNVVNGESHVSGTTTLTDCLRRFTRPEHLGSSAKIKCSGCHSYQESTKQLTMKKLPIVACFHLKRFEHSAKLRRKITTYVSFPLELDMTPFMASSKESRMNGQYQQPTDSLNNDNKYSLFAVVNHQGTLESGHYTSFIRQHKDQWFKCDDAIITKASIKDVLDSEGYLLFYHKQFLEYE
Conditions: not given
On the technique in general: In fluorescence polarisation assays a small probe gives low polarisation when free and higher when bound to something large.
The term Kd denotes the equilibrium constant for the complex coming apart. The low end stands for a tighter complex, the high end for a looser complex. Regarding B31, the dissociation constant Kd stood at 3 µM.

B32 registered a Kd of 19 µM.

B33 displayed a Kd of 11 µM.

In turn, B34 yielded a Kd of 0.1 µM.

A further assay has as its target USP20 DUSP2 domain (human) (UniProt Q9Y2K6). The assay can be described thus: fluorescence polarisation; displacement: serial dilution of the unlabelled peptide against the domain (at two-fold the KD of the FITC-labelled peptide) in complex with 10 nM FITC-labelled peptide; 50 mM phosphate buffer pH 7.4; room temperature; three technical replicates; sigmoidal dose-response fit.
Conditions: not given
B35: the Kd was 18.8 µM.

Molecule B36 yielded a Kd of 10.2 µM.

B37 showed a Kd of 44.7 µM.

As to B38, the Kd was found to be 235 µM.

Turning to B39, the Kd is 22.4 µM.

The target of a further assay is USP20 zf-UBP domain (human) (UniProt Q9Y2K6). Described as above.
Sequence of USP20 zf-UBP domain (human) (Q9Y2K6 whole entry, the tested form may be a part): as the sequence (Q9Y2K6 whole entry, the tested form may be a part) above
Conditions: not given
B40 returned a Kd of 162 µM.

For B41, the Kd stood at 505 µM. Against the preceding molecule, the Kd is about 3.1-fold higher.

Turning to B42, the Kd amounted to 9.02 µM.

A further assay has as its target USP33 DUSP2 domain (human) (UniProt Q8TEY7). The assay is described as above.
Conditions: not given
For B35, the Kd stood at 9.89 µM.

As for B36, the Kd came out at 228 µM.

As for B37, the dissociation constant (Kd) is 0.75 µM. This Kd is about 300-fold lower than that of the molecule before.

Consider B38, for which the Kd was 1180 µM.

B43 registered a Kd of 227 µM.

Regarding B39, the Kd worked out at 40.1 µM.

The target in the next assay is USP33 zf-UBP domain (human) (UniProt Q8TEY7). The description is as above.
Sequence of USP33 zf-UBP domain (human) (Q8TEY7 whole entry, the tested form may be a part): as the sequence (Q8TEY7 whole entry, the tested form may be a part) above
Conditions: not given
B40 returned a Kd of 40.6 µM. That is a double-digit micromolar value.

In turn, B41 yielded a Kd of 260 µM.

With B42, the Kd worked out at 7.86 µM. Against the preceding molecule, the Kd is about 33-fold lower.

The values above are taken from PMC13376213, “Systematic discovery of motif-based interactions of the auxiliary domains of USP family deubiquitinases” (Nature Communications, 2026).
